This experiment has as its target full-length ParE-ParC55 fusion protein of S. pneumoniae topoisomerase IV (Streptococcus pneumoniae) (UniProt Q59961). Description: crystal structure; full-length ParE-ParC55 fusion protein with 34 bp V-site DNA (1:2.2 protein:DNA), MgCl2; sitting drop, 50 mM sodium citrate pH 5.0, 4-7% isopropanol; space group P4(2)2(1)2, 3.7 Å; no ATP.

The source of these data is paper PMC3834822.

Usually stoichiometry N stands for a count of units in the complex or per binding partner. As for “full-length ParE-ParC55 fusion protein of S. pneumoniae topoisomerase IV (from UniProt Q59961 1-647; P72525 1-488) (enzyme)”, the stoichiometry N was found to be 2.
